Biological target: T1, HLA-A*02:01 (human)
T1 construct: MHC monomers captured on streptavidin plates; the UV-sensitive peptide is cleaved and exchanged with the test peptide; also called peptide-receptive MHC molecules; MHC class I
Assay: UV ligand-exchange ELISA (anti-b2m); +++ = exchange yield >=50
From the text: Candidate peptides for T cell based therapies according to the present invention were further tested for their MHC binding capacity (affinity). The individual peptide-MHC complexes were produced by UV-ligand exchange, where a UV-sensitive peptide is cleaved upon UV-irradiation, and exchanged with the peptide of interest as analyzed. Only peptide candidates that can effectively bind and stabilize the peptide-receptive MHC molecules prevent dissociation of the MHC complexes. To determine the yield of the exchange reaction, an ELISA was performed based on the detection of the light chain (β2m) of stabilized MHC complexes. The assay was performed as generally described in Rodenko et al. (Rodenko et al., 2006).
96 well MAXISorp plates (NUNC) were coated over night with 2 ug/ml streptavidin in PBS at room temperature, washed 4× and blocked for 1 h at 37° C. in 2% BSA containing blocking buffer. Refolded HLA-A*02:01/MLA-001 monomers served as standards, covering the range of 15-500 ng/ml. Peptide-MHC monomers of the UV-exchange reaction were diluted 100 fold in blocking buffer. Samples were incubated for 1 h at 37° C., washed four times, incubated with 2 ug/ml HRP conjugated anti-β2m for 1 h at 37° C., washed again and detected with TMB solution that is stopped with […]. Absorption was measured at 450 nm. Candidate peptides that show a high exchange yield (preferably higher than 50%, most preferred higher than 75%) are generally preferred for a generation and production of antibodies or fragments thereof, and/or T cell receptors or fragments thereof, as they show sufficient avidity to the MHC molecules and prevent dissociation of the MHC complexes.

| peptide exchange yield | Binder |
| --- | --- |
| 50 to 75% | YLEDGFAYV |
| 50 to 75% | TLNTLDINL |
| 50 to 75% | RMPTVLQCV |
| 50 to 75% | GLLGKVTSV |
| 50 to 75% | VLIEYNFSI |
| 50 to 75% | LLLPLELSLA |
| 50 to 75% | YLFSQGLQGL |
| 50 to 75% | ALLQALMEL |
| 50 to 75% | ALSELLQQV |
| 50 to 75% | GLAALAVHL |
| 50 to 75% | HLFDKIIKI |
| 50 to 75% | KLLSLLEEA |
| 50 to 75% | HLWGHALFL |
| 50 to 75% | VLTGQVHEL |
| 50 to 75% | GLYPVTLVGV |
| 50 to 75% | FLLDKPQDLSI |
| 50 to 75% | FLPVSVVYV |
| 50 to 75% | LLDPKTIFL (also called HAVCR1-001) |
| 50 to 75% | LLLEAVWHL |
| 50 to 75% | GLVDIMVHL |
| 50 to 75% | KIWEELSVLEV (also called MAGEA3-003) |
| 50 to 75% | MLLDTVQKV |

| peptide exchange yield | Binder |
| --- | --- |
| 50 to 75% | ALYGNVQQV |
| 50 to 75% | QLIEKNWLL |
| 50 to 75% | KLIDEDEPLFL |
| 50 to 75% | SLVENIHVL |
| 50 to 75% | FLIENLLAA |
| 50 to 75% | TVLQELINV |
| 50 to 75% | SLLEVNEASSV |
| 50 to 75% | ILGSFELQL |
| 50 to 75% | FLTEMVHFI |
| 50 to 75% | YLVPGLVAA |
| 50 to 75% | GLNGFNVLL |
| 50 to 75% | SLAETIFIV (also called HTR3A-001) |
| 50 to 75% | FIANLPPELKA |
| 50 to 75% | KLFEKSTGL |
| 50 to 75% | ALNESLVEC |
| 50 to 75% | ILLSVLHQL |
| 50 to 75% | VLEDKVLSV |
| 50 to 75% | TLFGIQLTEA |
| 50 to 75% | FTAEFLEKV |
| 50 to 75% | HLLGEGAFAQV |
| 50 to 75% | KISDFGLATV |
| 50 to 75% | QLMNLIRSV |

| peptide exchange yield | Binder |
| --- | --- |
| 50 to 75% | YLLDMPLWYL |
| 50 to 75% | SIIEYLPTL |
| 50 to 75% | KLLPMVIQL |
| 50 to 75% | ALQSFEFRV |
| 50 to 75% | FVQEKIPEL |
| 50 to 75% | IITEVITRL |
| 50 to 75% | TLLTFFHEL |
| 50 to 75% | ALLDGALQL |
| 50 to 75% | SLITGQDLLSV |
| 50 to 75% | ILAEEPIYIRV |
| 50 to 75% | ALADGIKSFLL |
| 50 to 75% | KLQEELNKV |
| 50 to 75% | TLYNPERTITV (also called IGF-004) |
| 50 to 75% | KLIDHQGLYL |
| 50 to 75% | GLLETTGLLAT |
| 50 to 75% | VLDGKVAVV |
| 50 to 75% | YLDEVAFML |
| 50 to 75% | IVTEIISEI |
| 50 to 75% | AVFNLVHVV |
| 50 to 75% | ALYPKEITL |
| 50 to 75% | VLFGELPAL |
| 50 to 75% | SLFSNIESV |

— patent US20160279215A1, “NOVEL PEPTIDES AND COMBINATION OF PEPTIDES FOR USE IN IMMUNOTHERAPY AGAINST VARIOUS TUMORS” (immatics biotechnologies GmbH, priority 2015, published 2016)
